The values that follow are results of earlier work, collected in publication PMC13507575.

This data set concerns the target IL-1β (Homo sapiens) (UniProt P01584).

Turning to canakinumab, the Kd was 4.1 nM.

Usually Kd stands for the constant that tells how readily two partners part at equilibrium.
